Reference: PMC4178060, “Recombinant p35 from Bacteria Can Form Interleukin (IL-)12, but Not IL-35” (PLoS ONE, 2014)

T1: p40_(C197A) (murine p40, flag-tagged) (mouse) (UniProt P43432)
T1 sequence: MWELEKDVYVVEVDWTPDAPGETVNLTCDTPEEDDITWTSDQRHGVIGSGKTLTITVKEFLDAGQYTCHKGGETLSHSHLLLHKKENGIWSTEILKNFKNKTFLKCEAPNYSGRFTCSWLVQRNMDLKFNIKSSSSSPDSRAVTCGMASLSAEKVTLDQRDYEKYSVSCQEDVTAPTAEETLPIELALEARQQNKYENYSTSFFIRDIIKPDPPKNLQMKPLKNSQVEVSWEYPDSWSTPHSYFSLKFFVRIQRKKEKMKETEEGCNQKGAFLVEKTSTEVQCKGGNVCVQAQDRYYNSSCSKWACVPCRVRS


Key:
[1] = target: the molecule itself; assay: non-reducing SDS-PAGE with Western blot; 20 µl conditioned supernatant of transiently transfected HEK293 cells separated by SDS-PAGE under non-reducing conditions; flag-specific antibody; disulfide-linked dimer
[2] = target: T1, p40_(C197A) (murine p40, flag-tagged) (mouse)

| biological activity of IL-12 reconstituted with bacterially expressed p35, compared to IL-12 (Ba/F3-gp130-IL-12Rβ1-IL-12Rβ2 cells) (fold less active) [2] | Binder | stoichiometry N [1] |
| --- | --- | --- |
|  | p40 wildtype (murine p40, flag-tagged) (natural protein, mouse, UniProt P43432 23-335, looked up, murine p40 (IL-12 subunit beta); The supernatant holds monomer and disulfide-linked dimer; also called mp40; IL-12p40; source: HEK293, transiently transfected, conditioned supernatant) MWELEKDVYVVEVDWTPDAPGETVNLTCDTPEEDDITWTSDQRHGVIGSGKTLTITVKEFLDAGQYTCHKGGETLSHSHLLLHKKENGIWSTEILKNFKNKTFLKCEAPNYSGRFTCSWLVQRNMDLKFNIKSSSSSPDSRAVTCGMASLSAEKVTLDQRDYEKYSVSCQEDVTCPTAEETLPIELALEARQQNKYENYSTSFFIRDIIKPDPPKNLQMKPLKNSQVEVSWEYPDSWSTPHSYFSLKFFVRIQRKKEKMKETEEGCNQKGAFLVEKTSTEVQCKGGNVCVQAQDRYYNSSCSKWACVPCRVRS | 2 |
| > 100 | recombinant murine p35 from bacteria (p35bac) (natural protein) RVIPVSGPARCLSQSRNLLKTTDDMVKTAREKLKHYSCTAEDIDHEDITRDQTSTLKTCLPLELHKNESCLATRETSSTTRGSCLPPQKTSLMMTLCLGSIYEDLKMYQTEFQAINAALQNHNHQQIILDKGMLVAIDELMQSLNHNGETLRQKPPVGEADPYRVKMKLCILLHAFSTRVVTINRVMGYLSSA |  |
